Here are results for seven sequences from the Immune Epitope Database (IEDB).

One assay concerns the target HLA-C*03:03. Description: IEDB peptide-MHC binding, purified MHC/direct/fluorescence; filed as Kd, often an IC50 or EC50 that approximates it; ≥ and ≤ were set here for values at or beyond the usual limits of such assays. The conditions noted are these: source organism: Yersinia pestis Nepal516.
Another assay deals with HLA-C*05:01. The description is as above.
For another assay, the target named is HLA-C*06:02. Described as above. Particulars: source organism: Yersinia pestis Nepal516.
A further assay concerns the target HLA-C*14:02. The description is as above. The conditions noted are these: source organism: Yersinia pestis Nepal516.
The next assay addresses HLA-C*15:02. The assay is described as above. The conditions noted are these: source organism: Yersinia pestis Nepal516.
For assay [1], the target named is HLA-B*08:01. Description: IEDB peptide-MHC binding, purified MHC/competitive/fluorescence; filed as Kd, often an IC50 or EC50 that approximates it; ≥ and ≤ were set here for values at or beyond the usual limits of such assays. Particulars: source organism: Yersinia pestis Nepal516.
Another assay deals with HLA-C*08:02. Nature of the assay: IEDB peptide-MHC binding, purified MHC/direct/fluorescence; filed as Kd, often an IC50 or EC50 that approximates it; ≥ and ≤ were set here for values at or beyond the usual limits of such assays.
Assay [2] has as its target HLA-A*01:01. Nature of the assay: IEDB peptide-MHC binding, purified MHC/competitive/fluorescence; filed as Kd, often an IC50 or EC50 that approximates it; ≥ and ≤ were set here for values at or beyond the usual limits of such assays.
In assay [3] the target is HLA-A*26:01. The description is as above. The conditions noted are these: source organism: Escherichia coli APEC O1.
The target of assay [4] is HLA-B*58:01. Described as above. Particulars: source organism: Escherichia coli APEC O1.
Assay [5] has as its target HLA-A*01:01. Nature of the assay: IEDB peptide-MHC binding, purified MHC/direct/fluorescence; filed as Kd, often an IC50 or EC50 that approximates it; ≥ and ≤ were set here for values at or beyond the usual limits of such assays.
The next assay addresses HLA-A*02:01. Described as above. Particulars: source organism: Pasteurella multocida.
Another assay concerns the target HLA-A*03:01. The description is as above. Particulars: source organism: Pasteurella multocida.
The target of another assay is HLA-A*11:01. Described as above. Particulars: source organism: Pasteurella multocida.
The target in another assay is HLA-A*24:03. Described as above. Particulars: source organism: Pasteurella multocida.
For assay [6], the target named is HLA-A*26:01. The assay is described as above.
For a further assay, the target named is HLA-A*31:01. Described as above. Particulars: source organism: Pasteurella multocida.
A further assay addresses HLA-A*69:01. Described as above. Particulars: source organism: Pasteurella multocida.
The next assay concerns the target HLA-B*07:02. The description is as above. Particulars: source organism: Pasteurella multocida.
Assay [7] deals with HLA-B*08:01. The assay is described as above. Particulars: source organism: Pasteurella multocida.
Assay [8] concerns the target HLA-B*15:01. Described as above.
Another assay deals with HLA-B*27:05. The description is as above. Particulars: source organism: Pasteurella multocida.
The target of the next assay is HLA-B*40:01. Described as above.
Assay [9] addresses HLA-B*58:01. The assay is described as above.
The next assay deals with HLA-A*02:03. Description: IEDB peptide-MHC binding, purified MHC/competitive/fluorescence; filed as Kd, often an IC50 or EC50 that approximates it; ≥ and ≤ were set here for values at or beyond the usual limits of such assays.
The target of another assay is HLA-A*02:06. The assay is described as above.
Assay [10] addresses HLA-A*02:11. The assay is described as above. Particulars: source organism: Pasteurella multocida subsp. multocida str. Pm70.
The target of the next assay is HLA-A*02:12. Described as above. The conditions noted are these: source organism: Pasteurella multocida subsp. multocida str. Pm70.
Assay [11] concerns the target HLA-A*02:11. Nature of the assay: IEDB peptide-MHC binding, purified MHC/direct/fluorescence; filed as Kd, often an IC50 or EC50 that approximates it; ≥ and ≤ were set here for values at or beyond the usual limits of such assays. Particulars: source organism: Bacillus cereus NVH0597-99.
For another assay, the target named is HLA-B*15:09. The description is as above. The conditions noted are these: source organism: Bacillus cereus NVH0597-99.
The target in another assay is HLA-B*39:01. The description is as above. The conditions noted are these: source organism: Bacillus cereus NVH0597-99.
For the next assay, the target named is HLA-A*23:01. Nature of the assay: IEDB peptide-MHC binding, purified MHC/competitive/radioactivity; filed as Kd, often an IC50 or EC50 that approximates it; ≥ and ≤ were set here for values at or beyond the usual limits of such assays. Particulars: source organism: SARS coronavirus Tor2.
For the next assay, the target named is HLA-A*24:02. The assay is described as above. The conditions noted are these: source organism: SARS coronavirus Tor2.
The target of the next assay is HLA-A*29:02. Described as above. The conditions noted are these: source organism: SARS coronavirus Tor2.
In the next assay the target is HLA-A*30:02. The description is as above. The conditions noted are these: source organism: SARS coronavirus Tor2.
For a further assay, the target named is HLA-A*26:02. Description: IEDB peptide-MHC binding, purified MHC/competitive/fluorescence; filed as Kd, often an IC50 or EC50 that approximates it; ≥ and ≤ were set here for values at or beyond the usual limits of such assays. Particulars: source organism: Human immunodeficiency virus 1.
The target in a further assay is HLA-A*30:01. The description is as above. The conditions noted are these: source organism: Human immunodeficiency virus 1.
Assay [12] deals with HLA-B*15:01. The description is as above. Particulars: source organism: Human immunodeficiency virus 1.
A further assay concerns the target HLA-B*15:17. Described as above. The conditions noted are these: source organism: Human immunodeficiency virus 1.
Another assay concerns the target HLA-B*18:01. The description is as above. Particulars: source organism: Human immunodeficiency virus 1.
Another assay has as its target HLA-B*57:01. The assay is described as above. Particulars: source organism: Human immunodeficiency virus 1.
[13] abbreviates: source organism: Escherichia coli APEC O1.
Setting [14] is: source organism: Pasteurella multocida.
Where [15] appears, read: source organism: Pasteurella multocida subsp. multocida str. Pm70.
The mark [16] stands for this setting: source organism: Human immunodeficiency virus 1.

For the sequence YVIKKSSPL, the Kd with HLA-C*03:03 is 2 nM; with HLA-C*05:01 (source organism: Yersinia pestis Nepal516), ≥ 20000 nM; with HLA-C*06:02 it was ≥ 20000 nM; with HLA-C*14:02, 163 nM; with HLA-C*15:02 it was 3950 nM; with HLA-B*08:01 [1], 196 nM.

Turning to FFNVEIPEF, in the assay with HLA-C*05:01 (source organism: human gammaherpesvirus 4), the Kd is ≥ 20000 nM.

Regarding YTTDVNQLY, the Kd with HLA-C*08:02 (setting [13]) came out at 1010 nM; with HLA-A*01:01 [2] (setting [13]), 5.1 nM; in the assay with HLA-A*26:01 [3] it was 16 nM; with HLA-B*58:01 [4] it was 36 nM.

Regarding LMAEDLANV, the Kd was ≥ 20000 nM with HLA-A*01:01 [5] (setting [14]); 47.2 nM with HLA-A*02:01; ≥ 20000 nM with HLA-A*03:01; ≥ 20000 nM with HLA-A*11:01; 11400 nM with HLA-A*24:03; ≥ 20000 nM in the assay with HLA-A*26:01 [6] (setting [14]). Further, the Kd in the assay with HLA-A*31:01 is 2580 nM; in the assay with HLA-A*69:01, 16.8 nM; with HLA-B*07:02, ≥ 20000 nM; with HLA-B*08:01 [7], ≥ 20000 nM; in the assay with HLA-B*15:01 [8] (setting [14]), 7690 nM; with HLA-B*27:05 it was ≥ 20000 nM. The Kd was ≥ 20000 nM in the assay with HLA-B*40:01 (setting [14]); ≥ 20000 nM with HLA-B*58:01 [9] (setting [14]); ≤ 0.1 nM in the assay with HLA-A*02:03 (setting [15]); ≤ 0.1 nM with HLA-A*02:06 (setting [15]); ≤ 0.1 nM in the assay with HLA-A*02:11 [10]; ≤ 0.1 nM in the assay with HLA-A*02:12.

On to YNDWEGNEL, for which the Kd with HLA-A*02:11 [11] was ≥ 20000 nM; in the assay with HLA-B*15:09 it was 3920 nM; with HLA-B*39:01 it was 598 nM; with HLA-C*05:01 (source organism: Bacillus anthracis str. A0193) it was 95 nM.

In the case of FADINGKLY, the Kd was 191 nM in the assay with HLA-A*01:01 [5] (source organism: SARS-CoV1); 562 nM with HLA-A*26:01 [6] (source organism: SARS-CoV1); 3140 nM in the assay with HLA-B*15:01 [8] (source organism: SARS-CoV1); ≥ 71300 nM with HLA-B*40:01 (source organism: SARS-CoV1); 2250 nM with HLA-B*58:01 [9] (source organism: SARS-CoV1); ≤ 1 nM with HLA-C*08:02 (source organism: SARS-CoV1). In addition, the dissociation constant Kd is ≥ 77800 nM with HLA-A*23:01, ≥ 77600 nM with HLA-A*24:02, 17 nM with HLA-A*29:02 and 1600 nM with HLA-A*30:02.

Regarding RSLYNTIATLY, the Kd with HLA-A*01:01 [2] (setting [16]) is 1650 nM; with HLA-A*02:03 (setting [16]), 722 nM; with HLA-A*02:06 (setting [16]), ≥ 20000 nM; with HLA-A*26:02, 921 nM; with HLA-A*30:01, ≥ 20000 nM; with HLA-B*15:01 [12] it was 103 nM. For the same sequence, the values for the Kd with HLA-B*15:17, in the assay with HLA-B*18:01 and in the assay with HLA-B*57:01 were 0.7 nM, 119 nM and 128 nM, respectively.

Usually Kd stands for the constant that tells how readily two partners part at equilibrium.
